{
  "source": "paper PMC10413684",
  "about": "“A bacterial tungsten-containing aldehyde oxidoreductase forms an enzymatic decorated protein nanowire” (Science Advances, 2023)",
  "molecules": {"B1": {"name": "AorA, polyferredoxin-like small subunit of the aldehyde oxidoreductase from Aromatoleum aromaticum (AORAa) (natural protein)", "chain": "MWKSLHIDPAKCTGCLQCEMACSYEHTGVINPSKSRIKVFSFEHEGRKVPYTCTQCTEAWCLHSCPVDAIRLDLTTGAKMVFEDTCVGCKVCTIACPFGTINYNQDTGKVQKCDLCEGDPACAKACPTAAITYIDADWTGLARMQAWAAKANTPASAA", "notes": "Two to four copies per Aor(AB)nC complex; Carries four Fe4S4 clusters; also called small subunit AorA; electron transfer subunit; source: Aromatoleum evansii, heterologous expression of the AOR plasmid"}, "B2": {"name": "AorC, FAD-containing NAD-binding subunit of the aldehyde oxidoreductase from Aromatoleum aromaticum (AORAa) (natural protein)", "chain": "MKHVILGNGPAGVIAAETLRRAAPTDDILLFGSEDAPPYSRMAIPYLLEGNIDESGTWLRKSPGHFDRLRIHEMRGRAVSLDSERRRILFDDGHFESWDRLLIATGSHPVRPPIPGIDLPEVQTCWTLEDARAIARFATPGARVLQLGAGFIGCIIMEALAARGVELTVVEMGDRMVPRMMTPTAGGMIRKWVEDQGVRVVTNAGVSRIDCRASNDAPLDVTLSTGEVVVADLVIVAAGVAPNIAFLEATPVHVAKGVLVDDRLQTSVPGIFAAGDVAEAPDLFTGAHLVAAIQPNAADQARVAALNMAGHEARLKGVLAINVLDTLGLISSSFGQWWGEERERGGAGVEHVDEAAYRYLSLQFKDDVLIGATSIGLTEHVGALRGLIHGRVRLGEWKERLLHSPLQFVDAYIARSQQPMALVR", "notes": "AorC of Aromatoleum aromaticum, Rossmann fold with an extended C-terminal domain of three α helices; A single copy per Aor(AB)nC complex; also called FAD-containing subunit; source: Aromatoleum evansii, heterologous expression of the AOR plasmid; Superdex 200 gel filtration for the wild-type complex, not for Δhelix-AOR"}, "B3": {"name": "AorB, catalytic tungsten-cofactor-containing subunit of the aldehyde oxidoreductase from Aromatoleum aromaticum (AORAa) (protein)", "chain": "MGWNRKVLRVNLAEGTCTPEPLNMQWADEYLGSRGLATKYLVSETDPKVDPLSPDNKMIMATGPLTGTMASTGGRYTVVTKGPLTGAIACSNSGGFFGAEMKFAGWDMVIFEGRSPTPVYLFIENERAELRDASYLWGRSCWETEESIRAQHQDPLIRVSSIGRAGENQVMFACIVNDLHRAAGRSGVGAVMGSKNLKAVAIRGTKGVSGIRDFPGFVRATSEAKKVLAGNPVTSEGLPKFGTQVLMNVINEMGALPTRNHRDVQFEDASKISAEAMHEKRPSDGKPQLVTNAACFGCTIACGRISAIDKTHFTVKNNPKYWGASGGLEYEAAWALGAANGVGDLEALQYANLLCNEQGMDPISFGATVGAAMELYETGVLTKERIGLDAPFGSADALAKLAEMTATGEGFGKEIGLGSKRLCEKYGHPELSMSVKGQEFPAYDSRGIQGMGLAYATSNRGACHLRGYTVASEVLGVPVKTDPHVIEGKAELVKAFQDATAVFDSAGICVFTSFAWTLADVQPQIAAACDGDWSMDKLATVGERIWNMERQFNNAAGLGAQDDNLPPRLTSEPAKSGPAKGMVNRLAEMLPEYYGVRGWTPEGTPTPETLSRLGLS"}},
  "key": {"[1]": {"target": "T1, AORAa (Aor(AB)nC complex; FAD-containing subunit AorC) (Aromatoleum aromaticum, UniProt Q5P142)", "T1 construct": "same complex as P1, site in AorC; N-terminal twin-Strep-tag on AorA; expressed in Aromatoleum evansii; modelled Aor(AB)2C; with Aldehyde oxidoreductase, polyferredoxin-like iron-sulfur subunit AorA; Aldehyde oxidoreductase, tungsten-containing catalytic subunit AorB (aldehyde:ferredoxin oxidoreductase)", "T1 sequence (Q5P142 1-424)": "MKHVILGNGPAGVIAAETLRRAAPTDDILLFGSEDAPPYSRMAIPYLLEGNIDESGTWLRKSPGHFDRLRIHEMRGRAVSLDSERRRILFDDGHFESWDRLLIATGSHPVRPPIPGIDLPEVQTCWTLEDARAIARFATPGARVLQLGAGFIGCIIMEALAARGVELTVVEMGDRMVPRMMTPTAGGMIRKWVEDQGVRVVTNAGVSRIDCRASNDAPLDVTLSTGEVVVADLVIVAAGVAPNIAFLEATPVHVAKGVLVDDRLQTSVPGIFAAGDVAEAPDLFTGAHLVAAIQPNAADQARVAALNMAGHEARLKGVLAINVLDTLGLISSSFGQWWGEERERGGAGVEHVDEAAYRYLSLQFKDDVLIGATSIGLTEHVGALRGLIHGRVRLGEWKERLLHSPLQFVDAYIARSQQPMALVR", "T1 sequence (Q5P144 1-158 partner)": "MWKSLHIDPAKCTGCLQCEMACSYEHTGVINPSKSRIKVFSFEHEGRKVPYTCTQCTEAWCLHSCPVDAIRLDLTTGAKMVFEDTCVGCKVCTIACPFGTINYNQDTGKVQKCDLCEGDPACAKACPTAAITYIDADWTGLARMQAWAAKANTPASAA", "T1 sequence (Q5P143 1-616 partner)": "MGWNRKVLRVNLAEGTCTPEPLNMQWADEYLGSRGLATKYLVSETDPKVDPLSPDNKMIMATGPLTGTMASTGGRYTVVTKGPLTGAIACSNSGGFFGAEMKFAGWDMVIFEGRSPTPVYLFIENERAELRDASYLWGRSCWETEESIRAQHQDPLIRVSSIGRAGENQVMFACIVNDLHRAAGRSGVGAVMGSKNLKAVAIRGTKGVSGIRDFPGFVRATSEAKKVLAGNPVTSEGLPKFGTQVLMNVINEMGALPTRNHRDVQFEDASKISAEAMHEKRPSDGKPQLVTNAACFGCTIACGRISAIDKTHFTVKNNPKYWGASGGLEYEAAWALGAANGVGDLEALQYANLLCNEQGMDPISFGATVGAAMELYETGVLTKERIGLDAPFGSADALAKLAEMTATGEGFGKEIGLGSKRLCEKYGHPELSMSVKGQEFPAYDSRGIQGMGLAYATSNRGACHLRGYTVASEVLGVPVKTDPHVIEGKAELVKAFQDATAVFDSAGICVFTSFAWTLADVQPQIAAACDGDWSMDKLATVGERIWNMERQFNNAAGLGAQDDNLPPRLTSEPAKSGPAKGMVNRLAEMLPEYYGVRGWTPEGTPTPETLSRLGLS", "assay": "cryo-EM structure, […] A", "format": "binding", "conditions": "bound in AorC; Arg41 and Glu294 (Gln294 in figure legend)"}, "[2]": {"target": "T2, AORAa (Aor(AB)nC complex; FAD-containing subunit AorC) (Aromatoleum aromaticum, UniProt Q5P142)", "T2 construct": "same complex as P1, site in AorC; N-terminal twin-Strep-tag on AorA; expressed in Aromatoleum evansii; modelled Aor(AB)2C; with Aldehyde oxidoreductase, polyferredoxin-like iron-sulfur subunit AorA; Aldehyde oxidoreductase, tungsten-containing catalytic subunit AorB (aldehyde:ferredoxin oxidoreductase)", "assay": "spectrophotometric specific activity", "format": "biochemical", "conditions": "hydrogen as electron donor; deletion-helix AOR", "T2 sequence (Q5P144 entry or part of it DEL138-156, one chain of several, further chain)": "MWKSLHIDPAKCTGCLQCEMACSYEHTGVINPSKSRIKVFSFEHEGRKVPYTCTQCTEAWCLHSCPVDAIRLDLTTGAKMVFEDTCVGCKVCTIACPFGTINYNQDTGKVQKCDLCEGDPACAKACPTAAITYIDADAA"}, "[3]": {"target": "T3, AorB, catalytic tungsten-cofactor-containing subunit of the aldehyde oxidoreductase from Aromatoleum … (Aromatoleum aromaticum, UniProt Q5P143 1-616)", "T3 construct": "AorB of Aromatoleum aromaticum; benzoate seen in the active site; also called catalytic subunit; source: Aromatoleum evansii, heterologous expression of the AOR plasmid; Superdex 200 gel filtration for the wild-type complex, not for Δhelix-AOR", "T3 sequence": "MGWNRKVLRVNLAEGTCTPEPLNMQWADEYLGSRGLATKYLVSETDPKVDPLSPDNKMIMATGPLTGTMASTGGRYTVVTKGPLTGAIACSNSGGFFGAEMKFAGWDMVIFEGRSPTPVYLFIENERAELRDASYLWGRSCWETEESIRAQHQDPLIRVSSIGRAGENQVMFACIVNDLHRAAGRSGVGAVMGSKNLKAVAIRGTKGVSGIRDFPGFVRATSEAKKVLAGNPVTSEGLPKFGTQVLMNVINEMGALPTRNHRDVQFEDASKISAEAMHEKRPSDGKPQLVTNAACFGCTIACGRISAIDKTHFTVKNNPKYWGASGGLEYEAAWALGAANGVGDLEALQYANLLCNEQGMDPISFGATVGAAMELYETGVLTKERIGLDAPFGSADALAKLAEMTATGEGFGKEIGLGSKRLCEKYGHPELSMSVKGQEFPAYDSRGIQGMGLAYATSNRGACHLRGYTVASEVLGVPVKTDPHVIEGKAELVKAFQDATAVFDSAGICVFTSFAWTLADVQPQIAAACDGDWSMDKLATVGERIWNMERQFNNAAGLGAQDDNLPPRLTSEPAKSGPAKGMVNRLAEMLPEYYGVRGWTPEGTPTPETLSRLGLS", "assay": "cryo-EM structure; purified AORAa complex, 0.7 mg/ml, 50 mM Hepes pH 7.5, glycerol below 2%; native and BS3 cross-linked samples prepared; 3.22 Å map of an Aor(AB)3C complex, model of Aor(AB)2C", "conditions": "both partners purified"}, "[4]": {"target": "B2", "assay": "cryo-EM structure; purified AORAa complex, 0.7 mg/ml, 50 mM Hepes pH 7.5, glycerol below 2%; native and BS3 cross-linked samples prepared; 3.22 Å map of an Aor(AB)3C complex, model of Aor(AB)2C", "conditions": "both partners purified"}, "[5]": {"target": "the molecule itself", "assay": "mass photometry; OneMP mass photometer, 10 mM tris pH 8.0, 100 mM KCl, 0.1 mM EDTA, room temperature, sample diluted 10-fold just before measurement; 50 nM in Fig. 2D, E"}, "[6]": {"target": "T4, AorA of the variant Δhelix-AOR, lacking the AorA residues from 138 to the C terminus (Aromatoleum aromaticum (strain DSM …, UniProt Q5P144))", "T4 chain": "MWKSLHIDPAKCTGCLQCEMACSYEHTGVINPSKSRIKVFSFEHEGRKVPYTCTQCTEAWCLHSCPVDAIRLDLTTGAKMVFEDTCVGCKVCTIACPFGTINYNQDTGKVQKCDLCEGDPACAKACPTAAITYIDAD", "assay": "mass photometry of co-purified complex; seen only within the AorABC complex, with AorB present"}, "[7]": {"target": "T4, AorA of the variant Δhelix-AOR, lacking …", "assay": "mass photometry of co-purified complex"}},
  "note": "Values joined by “and” are separate entries in the source; they are usually repeats but may differ in a detail not shown here. Equal entries are not always repeated.",
  "data": [
    {"molecule": "Cc1cc2nc3c(=O)[nH]c(=O)nc-3n(C[C@H](O)[C@H](O)[C@H](O)COP(=O)(O)OP(=O)(O)OC[C@H]3O[C@@H](n4cnc5c(N)ncnc54)[C@H](O)[C@@H]3O)c2cc1C", "note": "[FAD]", "values": [
      {"measurement": "cryo-EM structure, 3.22 A", "setting": "[1]", "result": "The FAD cofactor was well resolved in the electron density"}
    ]},
    {"molecule": "NC(=O)c1ccc[n+]([C@@H]2O[C@H](COP(=O)(O)OP(=O)(O)OC[C@H]3O[C@@H](n4cnc5c(N)ncnc54)[C@H](O)[C@@H]3O)[C@@H](O)[C@H]2O)c1", "note": "[NAD^+]", "values": [
      {"measurement": "specific activity", "setting": "[2]", "result": "NAD^+ reduction with hydrogen as an electron donor"}
    ]},
    {"molecule": "B1", "values": [
      {"measurement": "binding result", "setting": "[3]", "result": "binds"},
      {"measurement": "binding result", "setting": "[4]", "result": "binds"},
      {"measurement": "stoichiometry N", "setting": "[5]", "result": "2 and 3 and 4"}
    ]},
    {"molecule": "B2", "values": [
      {"measurement": "binding result", "setting": "[3]", "result": "binds"},
      {"measurement": "binding result", "setting": "[6]", "result": "binds"}
    ]},
    {"molecule": "B3", "values": [
      {"measurement": "binding result", "setting": "[7]", "result": "binds"}
    ]}
  ]
}
